T1: A.9004SS V1/V2 tags
T1 V1V2 tags construct: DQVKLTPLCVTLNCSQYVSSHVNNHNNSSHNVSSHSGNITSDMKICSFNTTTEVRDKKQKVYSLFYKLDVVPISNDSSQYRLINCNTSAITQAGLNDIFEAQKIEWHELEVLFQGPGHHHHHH

T2: gp70 C.1086 V1/V2 (HIV-1 V1V2 on murine leukemia virus gp70)
T2 construct: also called C.gp70 1086C V1V2; C.1086gp70V1V2
T2 chain: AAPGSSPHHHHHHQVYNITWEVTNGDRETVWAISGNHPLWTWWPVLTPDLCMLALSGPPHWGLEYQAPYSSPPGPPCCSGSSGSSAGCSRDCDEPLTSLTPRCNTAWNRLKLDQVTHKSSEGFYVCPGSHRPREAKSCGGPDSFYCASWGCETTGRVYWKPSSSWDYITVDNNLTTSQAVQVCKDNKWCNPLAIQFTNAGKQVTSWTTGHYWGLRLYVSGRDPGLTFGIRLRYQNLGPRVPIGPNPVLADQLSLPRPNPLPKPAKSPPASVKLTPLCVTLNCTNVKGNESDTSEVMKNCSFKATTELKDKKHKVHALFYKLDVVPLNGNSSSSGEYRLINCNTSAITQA

T3: MLV gp70 carrier protein
T3 construct: also called MuLV gp70
T3 carrier protein: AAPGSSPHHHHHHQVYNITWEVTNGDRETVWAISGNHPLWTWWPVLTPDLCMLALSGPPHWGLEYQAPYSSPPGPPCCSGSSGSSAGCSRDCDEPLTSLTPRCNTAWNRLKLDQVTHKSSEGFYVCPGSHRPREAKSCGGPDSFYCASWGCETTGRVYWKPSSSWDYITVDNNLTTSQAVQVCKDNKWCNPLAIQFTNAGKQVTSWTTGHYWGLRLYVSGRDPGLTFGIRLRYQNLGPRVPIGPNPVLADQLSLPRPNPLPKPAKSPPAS

T4: gp70 B.CaseA2 V1/V2 (HIV-1 V1V2 on murine leukemia virus gp70)
T4 construct: also called B.gp70CaseA2 V1/V2; gp70 B.CaseAV1V2
T4 chain: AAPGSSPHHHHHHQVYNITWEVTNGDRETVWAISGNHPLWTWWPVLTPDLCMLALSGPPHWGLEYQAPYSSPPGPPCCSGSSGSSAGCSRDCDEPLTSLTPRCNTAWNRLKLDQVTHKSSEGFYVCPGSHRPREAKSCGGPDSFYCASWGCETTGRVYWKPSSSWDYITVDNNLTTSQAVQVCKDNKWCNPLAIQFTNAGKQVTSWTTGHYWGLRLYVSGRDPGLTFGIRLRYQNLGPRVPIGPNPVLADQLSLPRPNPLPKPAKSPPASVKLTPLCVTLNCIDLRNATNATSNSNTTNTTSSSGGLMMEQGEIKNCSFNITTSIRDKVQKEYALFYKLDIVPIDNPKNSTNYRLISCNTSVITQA

T5: SIV CPZ US-1 gp140CF (SIVcpz)
T5 construct: also called US-1 SIVCPZ gp140CF
T5 chain: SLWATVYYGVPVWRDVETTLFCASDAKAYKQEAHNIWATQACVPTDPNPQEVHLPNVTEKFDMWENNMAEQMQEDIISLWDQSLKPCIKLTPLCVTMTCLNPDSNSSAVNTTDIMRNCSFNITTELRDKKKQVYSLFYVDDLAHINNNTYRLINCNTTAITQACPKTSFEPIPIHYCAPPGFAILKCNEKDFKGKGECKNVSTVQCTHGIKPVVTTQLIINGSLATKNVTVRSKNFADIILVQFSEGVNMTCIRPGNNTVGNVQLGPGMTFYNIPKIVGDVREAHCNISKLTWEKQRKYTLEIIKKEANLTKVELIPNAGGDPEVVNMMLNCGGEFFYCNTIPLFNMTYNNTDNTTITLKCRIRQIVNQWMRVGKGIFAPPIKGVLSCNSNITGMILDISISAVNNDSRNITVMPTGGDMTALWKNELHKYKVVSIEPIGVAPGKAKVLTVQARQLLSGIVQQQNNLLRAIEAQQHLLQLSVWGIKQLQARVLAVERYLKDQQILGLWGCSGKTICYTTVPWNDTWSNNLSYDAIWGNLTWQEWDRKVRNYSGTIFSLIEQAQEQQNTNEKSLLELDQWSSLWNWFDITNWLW


Experiments:
[1] = biological target: T1, A.9004SS V1/V2 tags; experiment: ELISA, OD405 at 10 ug/ml
[2] = biological target: T6, B.62357 gp140C; experiment: ELISA, OD405 at 10 ug/ml
T6 construct: also called B.62357 140C

[3] = biological target: J08 A.92RW020V1V2 (HIV-1); experiment: ELISA, OD405 at 10 ug/ml
[4] = biological target: B.9021 gp140C (HIV-1); experiment: ELISA, OD405 at 10 ug/ml
[5] = biological target: T7, B.HXB/BAL gp140CFI (HIV-1, UniProt P04578 33-680); experiment: ELISA, OD405 at 10 ug/ml
T7 construct: also called B.HxB/Ba gp140 CFI

[6] = biological target: T2, gp70 C.1086 V1/V2; experiment: ELISA, OD405 at 10 ug/ml
[7] = biological target: T8, G.con 140CF; experiment: ELISA OD405nm, bar chart, antibody concentration not given
T8 construct: also called G.con gp140CF; G.con.env03 gp140CF

[8] = biological target: T9, B.62357 140C; experiment: as above
T9 construct: also called B.62357 gp140C

[9] = biological target: D.9009SA V1V2 Tags; experiment: as above
[10] = biological target: T3, MLV gp70 carrier protein; experiment: as above
[11] = biological target: C.CAP206 gp140CF.12 (HIV-1); experiment: as above
[12] = biological target: A.Q23 V1V2 tags (HIV-1); experiment: as above
[13] = biological target: T4, gp70 B.CaseA2 V1/V2; experiment: as above
[14] = biological target: B.9021 gp140C (HIV-1); experiment: as above
[15] = biological target: T5, SIV CPZ US-1 gp140CF; experiment: as above

| Binder | binding result [1] | binding result [2] | binding result [3] | binding result [4] | binding result [5] | binding result [6] | binding result [7] | binding result [8] | binding result [9] | binding result [10] | binding result [11] | binding result [12] | binding result [13] | binding result [14] | binding result [15] |
| --- | --- | --- | --- | --- | --- | --- | --- | --- | --- | --- | --- | --- | --- | --- | --- |
| PG16 (antibody, V domains shown, also called mAb PG16; bnAb PG16) VH: QEQLVESGGGVVQPGGSLRLSCLASGFTFHKYGMHWVRQAPGKGLEWVALISDDGMRKYHSDSMWGRVTISRDNSKNTLYLQFSSLKVEDTAMFFCAREAGGPIWHDDVKYYDFNDGYYNYHYMDVWGKGTTVTVSS VL: QSALTQPASVSGSPGQTITISCNGTSSDVGGFDSVSWYQQSPGKAPKVMVFDVSHRPSGISNRFSGSKSGNTASLTISGLHIEDEGDYFCSSLTDRSHRIFGGGTKVTVL | no binding (tested: 10 ug/ml) | no binding (tested: 10 ug/ml) | no binding (tested: 10 ug/ml) | no binding (tested: 10 ug/ml) | no binding (tested: 10 ug/ml) | no binding (tested: 10 ug/ml) |  |  |  |  |  |  |  |  |  |
| CH59 reverted unmutated ancestor antibody (antibody, V domains shown, also called CH59 RUA; CH59_RUA) VH: EVQLVESGGGLVQPGRSLRLSCAASGFTFDDYAMHWVRQAPGKGLEWVSGISWNSGSIGYADSVKGRFTISRDNAKNSLYLQMNSLRAEDTALYYCAKDSPRGELPFDYWGQGTLVTVSS VL: SYELTQPPSVSVSPGQTARITCSGDALPKKYAYWYQQKSGQAPVLVIYEDSKRPSGIPERFSGSSSGTMATLTISGAQVEDEADYYCYSTDSSGNHRVFGGGTKLTVL |  |  |  |  |  |  | no binding (tested: not given) | no binding (tested: not given) | no binding (tested: not given) | no binding (tested: not given) | no binding (tested: not given) | no binding (tested: not given) | no binding (tested: not given) | no binding (tested: not given) | no binding (tested: not given) |

— patent US9988424 (DUKE UNIVERSITY, dated 2018)
